B1: ARC1779 oligonucleotide core (no PEG) (mixed)
mixed: GCGUGCAGUGCCUUCGGCCGTGCGGTGCCUCCGUCACGC
modifications: same 2'-OMe/deoxy/PS/3'-inverted dT pattern as ARC1779, 5'-OH instead of hexylamine-PEG
B2: ARC1779 (mixed)
mixed: B1 mixed
modifications: mGmCmGmUdGdCdAmGmUmGmCmCmUmUmCmGmGmCdCmG-s-dTmGdCdGdGdTmGmCdCmUdCdCmGmUdCmAmCmGmC-3T (m 2'-OMe; d deoxy; s PS; 3T inverted dT), 5'-20 kDa PEG

Columns and labels:
[1] = biological target: von Willebrand factor (vWF) (Homo sapiens, UniProt P04275 P04275:764-2813); experiment: filter; text gives value as affinity of ARC1779 for vWF; PBS, 0.1 mg/ml BSA, room temperature 30 min; conditions: label: 5'-32P
Sequence of von Willebrand factor (vWF) (P04275 764-2813, one chain of several): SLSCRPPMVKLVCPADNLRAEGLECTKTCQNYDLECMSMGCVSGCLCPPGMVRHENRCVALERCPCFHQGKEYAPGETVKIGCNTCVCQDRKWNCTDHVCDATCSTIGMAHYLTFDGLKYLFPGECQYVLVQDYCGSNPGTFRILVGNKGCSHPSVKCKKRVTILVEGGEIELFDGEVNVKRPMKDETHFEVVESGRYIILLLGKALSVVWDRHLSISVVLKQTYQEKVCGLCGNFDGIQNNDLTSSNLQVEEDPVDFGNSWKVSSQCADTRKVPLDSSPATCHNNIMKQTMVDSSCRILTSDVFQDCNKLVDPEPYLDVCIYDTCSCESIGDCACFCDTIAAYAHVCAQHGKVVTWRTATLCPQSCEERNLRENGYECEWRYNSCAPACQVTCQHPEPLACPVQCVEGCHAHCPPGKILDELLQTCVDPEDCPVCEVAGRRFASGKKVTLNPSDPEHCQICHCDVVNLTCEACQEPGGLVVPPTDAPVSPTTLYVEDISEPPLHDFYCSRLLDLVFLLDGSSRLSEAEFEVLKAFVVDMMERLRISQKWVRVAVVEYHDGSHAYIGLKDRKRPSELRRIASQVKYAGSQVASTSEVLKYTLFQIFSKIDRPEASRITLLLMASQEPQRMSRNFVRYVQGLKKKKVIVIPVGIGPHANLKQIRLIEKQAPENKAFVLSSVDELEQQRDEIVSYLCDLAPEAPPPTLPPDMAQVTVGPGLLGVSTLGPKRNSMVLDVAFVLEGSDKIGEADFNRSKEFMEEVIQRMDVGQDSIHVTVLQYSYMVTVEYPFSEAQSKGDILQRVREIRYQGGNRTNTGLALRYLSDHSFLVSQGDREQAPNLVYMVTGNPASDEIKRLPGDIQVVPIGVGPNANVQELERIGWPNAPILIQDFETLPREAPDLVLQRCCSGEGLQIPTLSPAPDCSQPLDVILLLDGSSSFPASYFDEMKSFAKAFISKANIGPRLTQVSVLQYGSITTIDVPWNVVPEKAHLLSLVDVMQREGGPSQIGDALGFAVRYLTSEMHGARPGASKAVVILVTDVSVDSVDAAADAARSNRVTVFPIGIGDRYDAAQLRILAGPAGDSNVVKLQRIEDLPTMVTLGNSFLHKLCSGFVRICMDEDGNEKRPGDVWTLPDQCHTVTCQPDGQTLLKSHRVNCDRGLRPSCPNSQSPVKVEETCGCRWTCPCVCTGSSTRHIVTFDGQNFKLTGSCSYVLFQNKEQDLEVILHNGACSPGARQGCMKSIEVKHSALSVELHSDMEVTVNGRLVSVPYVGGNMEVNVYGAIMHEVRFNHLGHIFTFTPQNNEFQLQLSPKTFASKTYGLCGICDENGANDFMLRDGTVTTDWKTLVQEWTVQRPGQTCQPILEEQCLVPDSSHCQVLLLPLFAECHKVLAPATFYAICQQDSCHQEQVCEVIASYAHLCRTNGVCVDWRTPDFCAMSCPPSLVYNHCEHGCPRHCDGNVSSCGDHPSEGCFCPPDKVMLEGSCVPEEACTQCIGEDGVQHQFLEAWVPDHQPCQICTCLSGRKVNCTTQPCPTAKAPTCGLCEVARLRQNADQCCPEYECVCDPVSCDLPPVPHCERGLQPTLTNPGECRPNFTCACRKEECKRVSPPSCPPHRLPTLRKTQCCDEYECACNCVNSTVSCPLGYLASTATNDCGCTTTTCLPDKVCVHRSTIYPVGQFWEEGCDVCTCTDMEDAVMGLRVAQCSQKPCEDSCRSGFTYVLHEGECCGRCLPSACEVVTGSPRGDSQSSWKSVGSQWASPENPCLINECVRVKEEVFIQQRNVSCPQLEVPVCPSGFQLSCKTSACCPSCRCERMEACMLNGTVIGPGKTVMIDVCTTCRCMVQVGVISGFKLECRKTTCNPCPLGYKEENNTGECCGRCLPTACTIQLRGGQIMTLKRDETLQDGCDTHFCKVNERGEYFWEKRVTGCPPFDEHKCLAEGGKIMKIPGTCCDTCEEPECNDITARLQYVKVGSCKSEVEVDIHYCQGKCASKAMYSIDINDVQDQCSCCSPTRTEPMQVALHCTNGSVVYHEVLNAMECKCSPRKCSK
Protocol: For binding assays, the oligonucleotide core of ARC1779 was synthesized with a 5′-terminal hydroxyl moiety instead of a 5′ hexylamine and 20 kDa PEG and subsequently 5′-end labeled with γ-³²P ATP using T4 polynucleotide kinase (New England BioLabs, Beverly, Mass.). Aptamer was incubated at room temperature for 30 minutes in PBS containing 0.1 mg/ml BSA (as a specificity control) and increasing concentrations of human VWF. Bound complexes were separated from free DNA using an acrylic mini-dot blot apparatus (Schleicher and Schuell, Keene, N.H.) and a membrane sandwich (top to bottom) of Protran BA85 0.45 μm Nitrocellulose Membrane (Schleicher and Schuell, Keene, N.H.), Hybond P Nylon Membrane (Amersham, Piscataway, N.J.), and 3mM filter paper (Whatman, Florham Park, N.J.) all pre-wet with Dulbecco's PBS. Radioactivity associated with protein:DNA complexes (nitrocellulose) and free DNA (nylon) was quantified on a Storm 860 Phosphorimager (Molecular Dynamics/Amersham, Piscataway, N.J.). Binding constants were determined by fitting the fraction of aptamer bound as a function of the concentration of vWF.

[2] = biological target: von Willebrand factor (vWF), A1 domain sites in plasma/blood (Homo sapiens, UniProt P04275 P04275:764-2813); experiment: free vWF A1 sites activity ELISA, plasma after dosing of healthy volunteers, Emax fit; 0.22 ug/mL; EC90 151 nM; conditions: protein: extract
Sequence of von Willebrand factor (vWF), A1 domain sites in plasma/blood (P04275 764-2813, one chain of several): as above

Binder | Kd [1] | EC50 [2]
B1 | ~2 nM | 
B2 |  | 17 nM
